Source: US5677146

Tests used:
[1] = biological target: plasma kallikrein (3 nM), Kabi
[2] = biological target: T1, Cathepsin G, purified at Novo Nordisk A/S using the method of Baugh and Travis
T1 sequence (P08311 21-244, species assumed, looked up): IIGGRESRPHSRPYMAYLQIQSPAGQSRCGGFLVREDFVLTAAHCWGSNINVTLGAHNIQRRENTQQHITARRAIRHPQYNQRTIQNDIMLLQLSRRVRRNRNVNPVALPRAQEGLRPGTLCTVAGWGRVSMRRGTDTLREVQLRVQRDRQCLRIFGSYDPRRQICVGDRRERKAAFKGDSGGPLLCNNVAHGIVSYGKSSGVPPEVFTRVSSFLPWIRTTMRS

[3] = biological target: Trypsin (8 nM), Novo Nordisk A/S, Bagsvaerd, Denmark
[4] = biological target: Urokinase (5 nM), Serono, Freigung, Germany
[5] = biological target: glandular kallikrein (1 U/ml), Sigma, St Louis, MO
[6] = biological target: Leukocyte Elastase, purified at Novo Nordisk A/S using the method of Baugh and Travis
[7] = biological target: Chymotrypsin (2.5 nM), Novo Nordisk A/S

B1: Kunitz-type inhibitor domain of the amyloid protein precursor (protein)
chain: EVCSEQAETGPCRAMISRWYFDVTEGKCAPFFYGGCGGNRNNFDTEEYCMAVCGSA
B1 was tested, and the % Inhibition (Plasmin (10 nM), Kabi) was 90%, the % Inhibition [1] was 71% and the % Inhibition [2] was 16%. For the same binder, the % Inhibition [3] was 99.7%, the % Inhibition [4] was 0% and the % Inhibition [5] was 82%. For the same binder, the % Inhibition [6] was 6% and the % Inhibition [7] was 94%.
